Experimental data taken from the nanobody polyreactivity screen of Harvey et al. (2022).

Assay: yeast display, Sf9 membrane polyspecificity reagent, FACS + sequencing; frameworks hold sequencing errors
Outline: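 Nanobodies from a synthetic yeast display library (Saccharomyces cerevisiae BJ5465), induced 36–48 hours with galactose, were stained 1 hour at 4 °C with 10% biotinylated, detergent-solubilized Sf9 membrane reagent, enriched on streptavidin microbeads, then FACS-sorted. Anti-HA (expression) and streptavidin (reagent binding) fluorescence set low and high (top ~1%) gates. Polyreactivity labels come from the gate of origin. Genes were colony-PCR amplified, MiSeq 2 × 250 sequenced and filtered by CDR length.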

Row | Sequence | polyreactivity (PSR sort gate)
1 | QVQLVESGGGLVQAGGSLRLSCAASGSTFRKYAMGWYRQAPGKERELVATISRGTSTYYADSVKGRFTISRDNAKNTVYLQMNSLKPEDTAVYYCNAGYYNKRDGGYTYNYWGQGTQVTVSS | low polyreactivity
2 | QVQLVESGGGLVQAGGSLRLSCAASGRTFRYYAMGWYRQAPGKERELVAAISSGGNTYYADSVKGRFTISRDNAKNTVYLQMNSLKPEDTAVYYCAAKVHYSAHRFGYWGQGTQVTVSS | high polyreactivity
3 | QVQLVESGGGLVQAGGSLRLSCAASGYTFYANAMGWYRQAPGKEREFVASITWSGGSTYYADSVKGRFTISRDNAKNTVYLQMNSLKPEDTAVYYCADESWFKYDYWGQGTQVTVSS | low polyreactivity
4 | QVQLVESGGGLVQAGGSLRLSCAASGRIFFGYAMGWYRQAPGKEREFVAAITRRGGSTYYADSVKGRFTISRDNAKNTVYLQMNSLKPEDTADYYCAKDTIGGASPHYYWGQGTQVTVSS | high polyreactivity
5 | QVQLVESGGGLVQAGGSLRFSCAASGSIFPYAMGWSIQEPGKERELVAAITSGVRTNYADSVKGRFTISRDNAKNPVDLQMNSLKPEATEVYYCAVLPRGSNGMDYWGQGTQVTVSS | low polyreactivity
6 | QVQLVESGGGLVQAGGSLRLSCAASGITLSIYAMGWYRQAPGKERELVAAIDWSDGSTYYADSVKGRFTISRDNAKNTVYLQMNSLKPEDTAVYYCAAEYHWSYWWPTDDYWGQGTQVTVSS | high polyreactivity
7 | QVQLVESGGGLVQAGGSLRLSCAASGRIFGRYAMGWYRQAPGKERELVAAISGGGSTNYADSVKGRFTISRDNAKNTVYLQMNSLKPEDTAVYYCAADDDWSGVEFDYWGQGTQVTVSS | low polyreactivity
8 | QVQLVESGGGIVQAGGSLRLSCAATGFTFVYYAMGWYRQEPGKERELVAAISSRGGSTNYADSVKGRFTISRDNAKKTVYLQMNSLKPEDTAVYYCAARANTKKPYYYWGQGTQVTVSS | high polyreactivity
9 | QVQLVETGGGLVHAGGSLRLSCAASGRIFHINAMGWYRQAPGKERELVAAISSGGRTNYADSVKGRFTISRDNAKNTVYLQMNSLKPEDTAVYYCARQYTYGPNRWYGYWGQGTQVTVSS | high polyreactivity
10 | QVQLVESGGGLVQAGGSLRLSCAASGGIFSYYAMGWYRQAPGKERELVAAITGSGATTYYADSVKGRFTISRDNAKNTVYLQMNSLKPEDTAVYYCAADYWTAFYTLDSWGQGTQVTVSS | low polyreactivity
11 | QVQLVESGGGLVQAGGSLRFSCAASGRTFQYYAMGWSRQAPGKERELVAAISQDGGSTYYADSVKGRFTISRDNAKNTVYLQMNSLKPEDTAVYYCAAEVWRSYGYWGQGTQVTVSS | low polyreactivity
12 | QVQLVESGGGLVQAGGSLRLSCAASGRIISHNAMGWYRQAPGKERELVAVISNGGSTYYADSVKGRFTISRDNAKNTVYLQMNSLKPEDTAVYYCAARYTPQSGFYYRGQGTQVTVSS | low polyreactivity
13 | QVQLVESGGGLVQAGGNLRLSCAASGLIFGGYAMGWYRPAPGKERELVAAISRTGGRTYYADSVKVRFTISRDNAKNTVYLQMNSLKPEDTAVYYCATKRWWVRYDYWGQGTQVTVSS | high polyreactivity
14 | QVQLVESGGGLVQAGGSLRLSCAASGSIFRKYTMGWYRQAPGKERELVAAINTNGGSTYYADSVKGRFTISRDNAKNTVYLQMNSLKPEDTAVYYCRAWAQNQYNYWGQGTQVTVSS | high polyreactivity
15 | QVQLVESGGGLLQAGRSLRLSCAASGSTFRAYTMGWYRQAPGIERELVAAINSGGSTYYADSVKGRFTISRDNAKNTVYLQMNSLKAEDTAVYYCNRRFYRAVKYGYWGQGTQVTVSS | low polyreactivity
16 | QVQLVESGGALVQAGGSLRLSCAASGSIFGEYTMGWYRQAPGKEWELVAAIRSGGDTYYADSVKGRFTLSRDKAKNTVYLQMNSLKPEDTAVYYCNAYWVRHYIMDYWGQGTQVTVSS | low polyreactivity
17 | QDQLVESGPGLVQAGGSLRLSCAPSGRIFTVYAMGWYRQAPGKERELVAAIDWSDGSTYYADSVKGRFTISRDNAKNTVYLHMNSLKPEATAVYYCAAETYWVVEYDYWGQGTQVTVSS | high polyreactivity
18 | QVQLVESGGGLVQAGGILRLSCAASGFTFSDNAMGWYIQAPGKERELVAAISRSGGRTYYADSVKGRFTISRDNAKNTVYLQMNSLKPEDTAVYYCAAYQYGMDYWGQGSQVTVSS | high polyreactivity
19 | QVQLVESGGGLVQAGGSLRLSCASSGLIFYDNMGWYRQAPGKETELVAAISSSGGSTSYADSVKGRFTISRDNAKNTVYLQMNSLKPEDTAVYYCAADSYPAYLGFFGFDYWGQGTQVTVSS | low polyreactivity
20 | QVQLVESGGGLVQAGGSLRLSCAASGRTFRRYAIGWYRQAPGKERELVATISSGGSTNYADSVKGRFTISRDNAKNTVYLQMNSLKPEDTAVYYCATPQTRTYDYWGQGTQGTVSS | high polyreactivity
21 | QVQLVESGGGLVQAGGSLRLSCAASGSTFYRYAMGWYRQAPGKERELVAAITRGGGNTYYADSVKGRFTISRDNAKNTVYLQMNSLKPEDTAVYYCNTDPTLRSRVGIWGFDYWGQGTQVTVSS | high polyreactivity
22 | QVQLVESGGGLVQAGGSLRLSCAASGSTFRDYAMGWYRQAPGKERELVAAITSGGSTNYADSVKGRFTISRDNAKNTVYLQMNSLKPEDTAVYYCNARYAGWYTPWGRQSVYSDDYWGQGTQVTVSS | low polyreactivity

Row | Sequence | polyreactivity (PSR sort gate)
23 | QVQLVESGGGLVQAGGSLRLSCAASGFIFESNAMGWYIQAPGKERELVATITNGDRTYYADSVNGRFTISRDNAKNTVYLQMNSLKPEDTAVYYCNADFRAREVFLFDSWGQGTQVTVSS | low polyreactivity
24 | QVQLVESGGGLVQAGGSLRLSCAASGRIYSVYAMGWYRQAPGKERELVAAIRSGDRTNYADSVKGRFTISRDNAKNTVYLQMNSLKPEDTAVYYCAAVQRPYYYWGQGTQVTVSS | high polyreactivity
25 | QVQLVESGGGLVQSGGSLRLSCAASGSTSINYAMGWYRQAPGKERELVATISRGGSTTYADSVKGRFTISRDNAKNTVYLQMNSLKPEATAVYYCAKDRYPADEDYWGQGTQVTVSS | low polyreactivity
26 | QVHLVESGGGLVQAGGSLRLSCAPSGRIFFPYAMGWYRQAPGKEREFVAAIRRSGGSTYYADSVKGRFTISRDNAKNTVYLQMNSLKPEDTAVYYCNAPLKRYGYYKYGYWGQGTQVTVSS | high polyreactivity
27 | QEQLVETVVGLVQARGSLRLRSAASGITFRKYAMRWYRQAPGKERDFVAAITRGGRTYYADSVKGRFTISRENAKNTVYLQMNSLKPEDTAVYYCAACTVVYAGSTYLQPFDYWGQGTQVTVSS | high polyreactivity
28 | QVQLVESGGGLVQAGGSLRLSCAASGSIFGYYAMGWYRQAPGKEREFVAAITWNGGSTYYADSVKGRFTISRDNAKNTVYLQMNSLKPEDTAVYYCARTSYARYRNGWTYDHWGQGTQVTVSS | low polyreactivity
29 | QVQLVESGGGLVQAGGSLRLSCAASGFTFEKNAMGWYRQAPGKERELVAAISRGGSTYADSVKGRFTISRDNAKNTVYLQMNSLKPEDTAVYYCAGDTVYIFSSAINGEFGYWGQGTQVTVSS | low polyreactivity
30 | QLQLVESGGGLVQAGGSLRLSCAASGFIFPDYAMGWYRQAPGTERELVAAMRIRDGSTYYADSVKGRFTISRDNAKNTVYLQMNSLKPEAPAVYYCAVRSSYGYSDTNYIMYYWGQGTQVTVSS | low polyreactivity
31 | QVQLVESGGGLVQAGGSLRLSCAASGSIFRNYAMGWSRPATGKERELVASIRYSGGRTNYADSVKGRFTISRDNAKNTVYLQMNSLKPEDTAVYYCAADPGYGWQRAYYYWGQGTQVTVSS | high polyreactivity
32 | QVQLVESGGGLVHAGGSLRISCAASGRTFWVYAMGWYRKAPGKERELVAAISWSGGRTYYADSVKGRFTISRDNAKNTVYLQMNSLKPEDTAVYYCAATTGVRSRRYYYWGQGTQVTVSS | low polyreactivity
33 | QVQLVESGGGLFQAGGSLRLSCAASGRIFIVITMGWYRQAPGKERELVATIDSDGDTNYADSVKGRFTISRDNAKNTVYLQMNSLKPEDTAVYYCAAYYTHTLAALKGGRMDYWGQGTQVTVSS | low polyreactivity
34 | QVQLVESGGGLVQAGGSLRLSCAASGSIFRYNAMGWYRPAPGTERELVAAITSGDSTYYADSVKGRFTISRDNAKNTVYLHMNSLKPEDTAVYYCARRSYATYSFRFDYWGQGTQVTVSS | low polyreactivity
35 | QVQLVESGGGLVQAGGSLRLSCAASGRIFARYAMGWYRQAPGKERELVAAITKSVGSTYYADSVKGRFTNSRDNAKNTVYLQMNSLKPEDTAVYYCNAVARGYGYDYWGQGTQVTVSS | high polyreactivity
36 | QVQLLESGGGLVQAGGSIRLTCAASGRIFYGNTMGWYRQAPGQETELVAAITIGDSTNYADSVKGRFTISRDNAKYTVYLQMNSLKPEDTAVFYCGKRNWWGYYKYDYWGQGSQVTVSS | low polyreactivity
37 | QVHLVESGGGLVQAGGSLRLSCAASGRTFILNAMGWYRQAPGKERELVAAISWSGGSTYYADSVKGRFTISRDNAKNTVYLQMNSLKPEDTAVYYCAKDSPGDGIGYGYWGQGTQVTVSS | low polyreactivity
38 | KVQLVESGGGLVQAGGSLRLSCAASGGTFYRYAMGWYRQAPGKERELVAAITSGSSTYYADSVKGRFTISRDNAKNTVYLQMNSLKPEDTAVYYCAAARYSRLSRTRPGKYGYWGQGTQVTVSS | low polyreactivity
39 | QVQLVESGGGLVQAGGSLRLSCAASGFTFSKYAMGWYRQAPGKERELVAAITRRGSSTYYADSVKGRFTISRDNAKNTVYLQMNSLKPEDTAVYYCNAPRPNGYLGEDNYWGQGTQVTVSS | high polyreactivity
40 | QVQLVESGGGLVQAGGSLRLSCAASGRTSVINAMGWYRQAPGKERELVATISRGGSTNYADSVKGRFTISRDNAKNTVYLQMNSLIPDDTAVYYCNADEQNESFIWSFTIIYDYWGQGTQVTVSS | low polyreactivity
41 | QVQLEESGGGLVQAGGSLRLSCAASGGTFYYSPMGWDREPPGKERELVAAIRWRGGNTYYADSVKGRFTISLDNAKNTVYLQMNSVKPEDTAVYYCAAQTHDYNRYVGTTAYDYWGQGTQVTVSS | low polyreactivity
42 | QVQLVESGGGLVQAGGSLRLSCAASGITFVFYTMGWYRQAPGKERELVAAISRSGASTYYADSVKGRFTISRDNAKNTVYLQMNSLKPEDTAVYYCAADRGYRFRMDYWGQGTQVTVSS | high polyreactivity
43 | QVQLVESGGGLVQAGGSLRLSCAAYGLTFRVYTMGWYRQAPGKERELVAAISTDGGSTYYADSVKGRFTISRDNAKNTVYFQMNSLKPEDTAVYYCAAKWYSYRWTQFDYWGQGTQVSVSS | high polyreactivity
